Positions count from the first letter of the chain named. Blank lines part the entries; values can stand above or below the binder they belong to.
How the values were obtained:
human Sclerostin [1] = molecular target: T1, human Sclerostin (human, UniProt Q9BQB4 24-213); experiment: BLI (Gator), antibody on anti-hFc biosensor, antigen as analyte, 1:1 global fit
T1 construct: Analyte of the BLI assays and the protein added in the reporter assays; also called hSclerostin; SOST
T1 sequence: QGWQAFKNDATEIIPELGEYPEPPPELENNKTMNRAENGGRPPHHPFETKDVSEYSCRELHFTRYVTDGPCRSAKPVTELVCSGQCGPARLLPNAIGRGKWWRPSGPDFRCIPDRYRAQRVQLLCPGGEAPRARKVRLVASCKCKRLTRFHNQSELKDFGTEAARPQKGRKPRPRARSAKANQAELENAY
Protocol: (§1) Binding kinetics and affinities of anti-Sclerostin×anti-DKK1 and anti-Sclerostin×anti-RANKL bispecific antibodies were measured with Gator (Probe Life) bio-layer interferometry (BLI). Antibodies were immobilized on an anti-hFc biosensor, using a 5 μg/ml solution. Serial dilutions of sclerostin (from 1 μg/ml), DKK1 (from 2 μg/ml), or RANKL (from 4 μg/ml) by two folds in kinetics buffer (PBS, pH 7.4, 0.05% Tween-20, 0.2% BSA) were used as the analytes. Affinity (KD) and kinetic parameters (Kₒₙ and Koff) were calculated from a global fit (1:1) of the data using the Gator software.

human DKK1 [2] = molecular target: T2, human DKK1 (human, UniProt O94907 32-266); experiment: as above
T2 construct: Analyte in BLI and the protein added in the reporter assay; also called hDKK1; Dickkopf-1
T2 sequence (looked up): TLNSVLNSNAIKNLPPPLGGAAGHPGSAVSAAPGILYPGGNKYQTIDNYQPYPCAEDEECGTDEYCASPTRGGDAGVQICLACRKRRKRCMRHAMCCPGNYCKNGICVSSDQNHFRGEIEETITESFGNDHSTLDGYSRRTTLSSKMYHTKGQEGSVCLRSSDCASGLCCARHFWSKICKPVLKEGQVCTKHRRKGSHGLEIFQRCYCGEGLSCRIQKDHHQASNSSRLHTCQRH
Protocol: as §1

human Sclerostin [3] = molecular target: T1, human Sclerostin; experiment: cell-based or functional assay
human DKK1 [4] = molecular target: T2, human DKK1; experiment: cell-based or functional assay
human Sclerostin [5] = molecular target: T1, human Sclerostin; experiment: cell-based or functional assay; remark: listed apart in the source
[6] = molecular target: T3, His-tagged human Sclerostin (NCBI reference No. NP_079513.1) (human, UniProt Q9BQB4 24-213); experiment: ELISA, plate coated with His-tagged human Sclerostin
T3 construct: also called mouse His-tagged human Sclerostin; not shown: His tag
T3 sequence: T1 sequence
Protocol: The ability of antibodies to specifically bind Sclerostin was determined by an ELISA capture assay. Plates were coated, in a 96-well half-area, with 100 μl/well of mouse His-tagged human Sclerostin (NCBI reference No. is NP_079513.1) [[…]], in coating buffer (PBS, pH 7.4), and incubated at RT for one hour, or 4° C. overnight. The plates were washed once with 100 μl/well of washing solution (PBS containing 0.2% Tween20, BIO-RAD). Plates were then incubated in blocking solution (PBS containing 1% BSA, 1% goat serum and 0.5% Tween20; 100 μl/well) for one hour at room temperature (RT). Anti-Sclerostin antibodies at various concentrations (1000, 333.3, 111.1, 37.0, 12.3, 4.1, 1.4, 0.5, 0.15, 0.05 ng/ml), a positive control antibody Romosozumab or non-Sclerostin related IgG (human or rat IgG, negative control), were then added to each well in 20 μl/well of blocking solution, and plates were incubated at RT for one hour. NeutrAvidin HRP (Pierce, Catalog #31001) diluted in blocking solution (1:50,000 dilution) was added at to each well ([…]), and the plates were incubated at RT for one hour prior to three washes with […] of washing solution. SuperSignal ELISA Femto (ThermoFisher Scientific, Catalog #37074) working solution was added to the plates ([…]), and the signal was read using a luminometer at 425 nm.

[7] = molecular target: T4, cynomolgus monkey Sclerostin (cynomolgus monkey, UniProt Q9BG78 24-213 (Chlorocebus aethiops entry)); experiment: BLI (Gator), antibody on anti-hFc biosensor, Sclerostin as analyte, 1:1 global fit
T4 chain: T1 sequence with E26D, P70Q, E129A, T161P, S178G
Protocol: (§2) The binding affinity of humanized anti-Sclerostin antibodies to human and cynomolgus monkey Sclerostin were determined with bio-layer interferometry using a Gator instrument (Probe Life). Antibodies were immobilized on an anti-hFc biosensor, using a […]. Serial dilutions of human Sclerostin and cynomolgus monkey Sclerostin from 4 μg/ml by two folds in kinetics buffer (PBS, pH 7.4, 0.05% Tween-20, 0.2% BSA, 10 μM biotin) were used as the analytes. Affinity (KD) and kinetic parameters (Kₒₙ and Koff) were calculated from a global fit (1:1) of the data using the Gator software.

human Sclerostin [8] = molecular target: T1, human Sclerostin; experiment: BLI (Gator), antibody on anti-hFc biosensor, antigen as analyte; koff at LOD, KD estimated
Protocol: as §1

human Sclerostin [9] = molecular target: T1, human Sclerostin; experiment: BLI (Gator), antibody on anti-hFc biosensor, Sclerostin as analyte, 1:1 global fit
Protocol: as §2

B1: BAP0039 (bispecific antibody, human IgG4 S228P, kappa)
heavy: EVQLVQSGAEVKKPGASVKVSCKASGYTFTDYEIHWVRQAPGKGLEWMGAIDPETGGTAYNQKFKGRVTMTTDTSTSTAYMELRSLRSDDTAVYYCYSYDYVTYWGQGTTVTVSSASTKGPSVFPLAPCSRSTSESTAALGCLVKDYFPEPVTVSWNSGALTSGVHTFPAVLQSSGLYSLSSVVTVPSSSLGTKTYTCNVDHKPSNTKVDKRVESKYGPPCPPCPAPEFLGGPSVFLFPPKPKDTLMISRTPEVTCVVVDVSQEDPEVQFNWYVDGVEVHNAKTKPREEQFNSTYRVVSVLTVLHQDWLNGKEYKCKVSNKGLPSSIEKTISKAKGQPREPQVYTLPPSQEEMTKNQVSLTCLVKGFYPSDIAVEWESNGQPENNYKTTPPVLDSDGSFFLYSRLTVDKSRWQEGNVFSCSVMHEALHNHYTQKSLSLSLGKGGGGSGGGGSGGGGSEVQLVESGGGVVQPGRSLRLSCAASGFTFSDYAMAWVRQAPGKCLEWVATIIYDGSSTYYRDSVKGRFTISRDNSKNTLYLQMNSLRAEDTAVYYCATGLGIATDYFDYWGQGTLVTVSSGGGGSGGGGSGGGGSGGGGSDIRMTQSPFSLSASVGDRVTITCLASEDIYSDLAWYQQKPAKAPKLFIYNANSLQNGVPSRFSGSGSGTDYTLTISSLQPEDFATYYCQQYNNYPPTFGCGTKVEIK
light: DVVMTQSPLSLSVSPGERASLSCKSSQSLLYSDGRTYLNWYLQKPGQSPQRLIYLVSKLDSGVPDRFSGSGSGTDFTLKISRVQSEDVGVYYCWQGTHLPHTFGGGTKVEIKRTVAAPSVFIFPPSDEQLKSGTASVVCLLNNFYPREAKVQWKVDNALQSGNSQESVTEQDSKDSTYSLSSTLTLSKADYEKHKVYACEVTHQGLSSPVTKSFNRGEC
notes: Anti-DKK1 scFv (VH-VL) fused to the C-terminus of the heavy chains of the anti-Sclerostin full length antibody (hAb-1)
- Kd (human Sclerostin [1]): 0.052 nM
- koff (human Sclerostin [1]): 9.74e-05 s⁻¹
- kon (human Sclerostin [1]): 1.88e+06 M⁻¹ s⁻¹
- Kd (human DKK1 [2]): 0.14 nM
- koff (human DKK1 [2]): 4.32e-05 s⁻¹
- kon (human DKK1 [2]): 309000 M⁻¹ s⁻¹
- EC50, Sclerostin neutralization activity in HEK293/TCF/LEF/Wnt1 reporter gene assay (human Sclerostin [3]): 26.7 nM
- EC50, DKK1 neutralization activity in HEK293/TCF/LEF/Wnt1 reporter gene assay (human DKK1 [4]): 20.9 nM

B2: 65B12C9 (antibody, V domains shown)
VH: QVQLQQPGAELVKPGASVKLSCKASGYTFTSYWMHWVKQRPGQGLEWIGMIHPNSGSSNYNEKFKSKATLTVDKSSSTAYMQLSSLTSEDSAVYYCANDYDDEGFAYWGQGTLVTVSA
VL: SIVMTQTPKFLLVSAGDRVTITCKASQSVSNDVAWYQQKPGQSPKLLIYYASNRCTGVPDRFTGSGYGTDFTFTISTVQAEDLAVYFCQQDYSSPWTFGGGTKLEIK
notes: Murine monoclonal antibody from a hybridoma
- EC50, Sclerostin-neutralisation activity in HEK293/TCF/LEF/Wnt1 cells (luciferase reporter) (human Sclerostin [5]): 152 nM
- EC50 [6]: 0.04 nM

B5: hAb-1 (antibody, V domains shown)
VH: EVQLVQSGAEVKKPGASVKVSCKASGYTFTDYEIHWVRQAPGKGLEWMGAIDPETGGTAYNQKFKGRVTMTTDTSTSTAYMELRSLRSDDTAVYYCYSYDYVTYWGQGTTVTVSS
VL: DVVMTQSPLSLSVSPGERASLSCKSSQSLLYSDGRTYLNWYLQKPGQSPQRLIYLVSKLDSGVPDRFSGSGSGTDFTLKISRVQSEDVGVYYCWQGTHLPHTFGGGTKVEIK
notes: Humanized 93B1B7; also called humanized anti-Sclerostin antibody hAb-1
- EC50, Sclerostin-neutralisation activity in HEK293/TCF/LEF/Wnt1 cells (luciferase reporter) (human Sclerostin [5]): 13.9 nM
- Kd [7]: 0.18 nM
- koff [7]: 0.000229 s⁻¹
- kon [7]: 1.28e+06 M⁻¹ s⁻¹
- Kd (human Sclerostin [9]): 0.41 nM
- koff (human Sclerostin [9]): 0.0003 s⁻¹
- kon (human Sclerostin [9]): 730000 M⁻¹ s⁻¹

B7: 91F6D10 (antibody, V domains shown)
VH: QVQLQQSGAELVRPGASVTLSCKASGYTFTDYEMHWVKQTPVHGLEWIGAIDPETGGTAYNQKFKAKAILTADRSSSTAYMELRSLTSEDSAVYYCFSYDYVSYWGQGTLVTVSA
VL: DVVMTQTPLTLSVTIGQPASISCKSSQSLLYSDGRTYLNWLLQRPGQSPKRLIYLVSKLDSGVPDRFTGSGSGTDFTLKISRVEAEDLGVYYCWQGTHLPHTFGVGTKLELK
notes: as for B2
- EC50, Sclerostin-neutralisation activity in HEK293/TCF/LEF/Wnt1 cells (luciferase reporter) (human Sclerostin [5]): 60.6 nM
- EC50 [6]: 0.06 nM

B10: 56E5C10 (antibody, V domains shown)
VH: B7 VH with Y32F, K65T
VL: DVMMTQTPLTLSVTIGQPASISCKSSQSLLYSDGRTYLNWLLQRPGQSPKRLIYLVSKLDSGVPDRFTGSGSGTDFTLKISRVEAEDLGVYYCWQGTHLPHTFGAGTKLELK
notes: as for B2
- EC50, Sclerostin-neutralisation activity in HEK293/TCF/LEF/Wnt1 cells (luciferase reporter) (human Sclerostin [5]): 64.2 nM
- EC50 [6]: 0.09 nM

B14: 81B2B6 (antibody, V domains shown)
VH: B7 VH
VL: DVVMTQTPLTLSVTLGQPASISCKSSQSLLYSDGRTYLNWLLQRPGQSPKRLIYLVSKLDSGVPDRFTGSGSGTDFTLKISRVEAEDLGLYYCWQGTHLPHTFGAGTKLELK
notes: as for B2
- EC50, Sclerostin-neutralisation activity in HEK293/TCF/LEF/Wnt1 cells (luciferase reporter) (human Sclerostin [5]): 59.6 nM
- EC50 [6]: 0.01 nM

Second part, the binder after the results:

- Kd [7]: 0.35 nM
- koff [7]: 0.000239 s⁻¹
- kon [7]: 755000 M⁻¹ s⁻¹
B3: Romosozumab (antibody, V domains shown)
VH: EVQLVQSGAEVKKPGASVKVSCKASGYTFTDYNMHWVRQAPGQGLEWMGEINPNSGGAGYNQKFKGRVTMTTDTSTSTAYMELRSLRSDDTAVYYCARLGYDDIYDDWYFDVWGQGTTVTVSS
VL: DIQMTQSPSSLSASVGDRVTITCRASQDISNYLNWYQQKPGKAPKLLIYYTSRLLSGVPSRFSGSGSGTDFTLTISSLQPEDFATYYCQQGDTLPYTFGGGTKVEIK

- kon (human Sclerostin [1]): 1.88e+06 M⁻¹ s⁻¹
- Kd (human DKK1 [2]): 1.01 nM
- koff (human DKK1 [2]): 0.000301 s⁻¹
- kon (human DKK1 [2]): 297000 M⁻¹ s⁻¹
- Kd (human Sclerostin [8]): ~0.01 nM
- EC50, Sclerostin neutralization activity in HEK293/TCF/LEF/Wnt1 reporter gene assay (human Sclerostin [3]): 23.6 nM
- EC50, DKK1 neutralization activity in HEK293/TCF/LEF/Wnt1 reporter gene assay (human DKK1 [4]): 24.1 nM
B4: BAP0037 (bispecific antibody, human IgG4 S228P, kappa)
heavy: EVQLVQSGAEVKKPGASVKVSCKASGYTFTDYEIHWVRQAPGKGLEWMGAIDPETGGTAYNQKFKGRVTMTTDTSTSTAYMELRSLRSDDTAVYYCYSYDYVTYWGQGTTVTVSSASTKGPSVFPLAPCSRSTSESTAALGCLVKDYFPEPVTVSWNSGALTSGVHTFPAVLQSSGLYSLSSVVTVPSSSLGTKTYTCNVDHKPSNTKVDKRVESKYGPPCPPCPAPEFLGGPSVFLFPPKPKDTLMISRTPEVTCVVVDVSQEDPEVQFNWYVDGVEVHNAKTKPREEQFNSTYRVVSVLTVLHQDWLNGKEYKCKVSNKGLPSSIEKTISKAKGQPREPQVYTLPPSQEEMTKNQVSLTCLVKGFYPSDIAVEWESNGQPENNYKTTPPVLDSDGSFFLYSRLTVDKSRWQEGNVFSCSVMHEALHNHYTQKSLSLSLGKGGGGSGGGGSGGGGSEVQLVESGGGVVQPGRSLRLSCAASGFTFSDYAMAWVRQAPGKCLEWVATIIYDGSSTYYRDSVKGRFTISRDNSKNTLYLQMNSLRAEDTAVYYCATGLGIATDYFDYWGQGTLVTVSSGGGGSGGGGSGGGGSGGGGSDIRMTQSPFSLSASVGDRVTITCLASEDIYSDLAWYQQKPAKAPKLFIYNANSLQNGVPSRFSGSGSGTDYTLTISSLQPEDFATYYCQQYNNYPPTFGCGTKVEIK
light: DIQMTQSPSSLSASVGDRVTITCRSSQSLLYSDGRTYLNWYQQKPGKSPKRLIYLVSKLDSGVPDRFSGSGSGTDFTLTISSLQPEDFATYYCWQGTHLPHTFGGGTKVEIKRTVAAPSVFIFPPSDEQLKSGTASVVCLLNNFYPREAKVQWKVDNALQSGNSQESVTEQDSKDSTYSLSSTLTLSKADYEKHKVYACEVTHQGLSSPVTKSFNRGEC
notes: Anti-DKK1 scFv (VH-VL) fused to the C-terminus of the heavy chains of the anti-Sclerostin full length antibody (hAb-2)

- EC50, Sclerostin-neutralisation activity in HEK293/TCF/LEF/Wnt1 cells (luciferase reporter) (human Sclerostin [5]): 15.1 nM
B6: hAb-3 (antibody, V domains shown)
VH: B5 VH
VL: DIQMTQSPSSLSASVGDRVTITCRSSQSLLYSDSRTYLNWLQQKPGKSPKRLIYLVSKLDSGVPDRFSGSGSGTDFTLTISSLQPEDFATYYCWQGTHLPHTFGGGTKVEIK

- EC50, Sclerostin-neutralisation activity in HEK293/TCF/LEF/Wnt1 cells (luciferase reporter) (human Sclerostin [5]): 63.4 nM
- EC50 [6]: 0.07 nM
B8: 51E8D4 (antibody, V domains shown)
VH: B7 VH with Y32F, M34I, V37M, H43P, A66G, I69L, R74K, E82D, Y95F
VL: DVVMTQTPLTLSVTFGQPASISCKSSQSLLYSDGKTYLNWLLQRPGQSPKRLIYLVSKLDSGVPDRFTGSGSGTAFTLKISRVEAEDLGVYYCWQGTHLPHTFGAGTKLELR
notes: as for B2

- EC50, Sclerostin-neutralisation activity in HEK293/TCF/LEF/Wnt1 cells (luciferase reporter) (human Sclerostin [5]): 67.4 nM
- EC50 [6]: 0.04 nM
B9: 71G6G8 (antibody, V domains shown)
VH: B7 VH with V2A, M34I, A66G, M81L, S103T, S114T
VL: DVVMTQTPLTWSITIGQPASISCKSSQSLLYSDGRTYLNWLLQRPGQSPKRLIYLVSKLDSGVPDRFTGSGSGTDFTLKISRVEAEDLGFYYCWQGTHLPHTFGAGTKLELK
notes: Murine anti-Sclerostin monoclonal antibody

- EC50, Sclerostin-neutralisation activity in HEK293/TCF/LEF/Wnt1 cells (luciferase reporter) (human Sclerostin [5]): 55.4 nM
- EC50 [6]: 0.04 nM
B11: 97C11D7 (antibody, V domains shown)
VH: B7 VH with T58S, Y60N
VL: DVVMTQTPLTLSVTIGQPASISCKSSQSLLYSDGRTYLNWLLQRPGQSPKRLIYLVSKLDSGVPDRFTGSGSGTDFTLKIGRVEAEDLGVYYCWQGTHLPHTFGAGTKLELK
notes: as for B2

- EC50, Sclerostin-neutralisation activity in HEK293/TCF/LEF/Wnt1 cells (luciferase reporter) (human Sclerostin [5]): 59.4 nM
- EC50 [6]: 0.02 nM
B12: 84F2D5 (antibody, V domains shown)
VH: B7 VH with Y32F, M34I, V37L, H43P, A66G, I69L, R74K
VL: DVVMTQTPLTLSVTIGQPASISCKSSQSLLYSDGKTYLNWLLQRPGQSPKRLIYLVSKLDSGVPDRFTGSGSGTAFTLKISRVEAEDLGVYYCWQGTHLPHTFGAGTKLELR
notes: as for B2

- EC50, Sclerostin-neutralisation activity in HEK293/TCF/LEF/Wnt1 cells (luciferase reporter) (human Sclerostin [5]): 62.8 nM
- EC50 [6]: 0.04 nM
B13: 94B12D3 (antibody, V domains shown)
VH: B7 VH with M34I, C96S
VL: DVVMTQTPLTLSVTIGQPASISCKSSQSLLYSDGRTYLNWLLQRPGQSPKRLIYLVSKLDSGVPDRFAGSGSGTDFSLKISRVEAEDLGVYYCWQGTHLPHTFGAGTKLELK
notes: as for B2

Reference: US20230312755A1 (ANGITIA, published 2023)
